This is an account of results in patent publication US20250304677A1 (VIB VZW, published 2025).

Numbering of substitutions follows the chain as printed. In names and notes the source's numbering stands.

Sequences and labels used below:
B1: P01500012: P0150001 with M32I (VHH)
VHH: EVQLVESGGGLVQPGGSLRLSCAASGSGFSGIIMGWYRQAPGKQRELVATVTSHGTTNYADSVKGRFTISRDNAKNTVYLQMNSLRPEDTAVYYCNAHFPGIYWGKGTLVTVSS
notes: Entry carries a His6 tag
B2: P01500090: P0150001 with A24V, S27L, M32P, N67E (VHH)
VHH: B1 VHH with A24V, S27L, I32P, N76E
B3: P01500089: P0150001 with S27T, M32I, N76D (VHH)
VHH: B1 VHH with S27T, N76D
B4: P01500088: P0150001 with S27T, M32I (VHH)
VHH: B1 VHH with S27T
B5: P01500084: P0150001 with A24V, S27T, M32I, N76D (VHH)
VHH: B1 VHH with A24V, S27T, N76D
B6: P01500014: P0150001 with M32P (VHH)
VHH: B1 VHH with I32P
notes: Entry carries a His6 tag
B7: P01500086: P0150001 with A24L, S27A, M32P (VHH)
VHH: B1 VHH with A24L, S27A, I32P
B8: P01500085: P0150001 with A24V, S27L, M32P (VHH)
VHH: B1 VHH with A24V, S27L, I32P
B9: P01500087: P0150001 with A24L, S27A, M32P, N67E (VHH)
VHH: B1 VHH with A24L, S27A, I32P, N76E
B10: P01500055: P01500001(V51R, D72E, N73G)-FLAG3-HIS6 (VHH)
VHH: B1 VHH with I32M, V51R, D72E, N73G
notes: also called P0150055
B11: P01500057: P01500001(G26E, G28P, D72E, N73G)-FLAG3-HIS6 (VHH)
VHH: B1 VHH with G26E, G28P, I32M, D72E, N73G
notes: also called P0150057
B12: P01500056: P01500001(I33L, D72P, N73G)-FLAG3-HIS6 (VHH)
VHH: B1 VHH with I32M, I33L, D72P, N73G
notes: also called P0150056
B13: 2MFR67 (E72D, D72N, S74A)-NT (VHH, not shown: small tags and cut ends)
VHH: B1 VHH with E1Q, V5Q, P14A, I32M, Y79L, R86K, L109Q
notes: Second substitution printed D72N; also called 2MFR67 triple mutant
B14: 2HFO9 (I51V,G54H)-NT (VHH)
VHH: B1 VHH with E1Q, V5Q, P14A, I32M, Y79L, R86K, L109Q
notes: not shown: neurotensin tridecapeptide (NT) and any linker or tags of the fusion
B15: 2HFO9(I51V)-NT (VHH)
VHH: B1 VHH with E1Q, V5Q, P14A, I32M, H54G, Y79L, R86K, L109Q
notes: as for B14
B16: 2HFO9(G54H)-NT (VHH)
VHH: B1 VHH with E1Q, V5Q, P14A, I32M, V51I, Y79L, R86K, L109Q
notes: as for B14
B17: [D72E] (VHH)
VHH: B1 VHH with I32M, D72E
notes: library clone tested as crude periplasmic extract; also called P01500001[D72E]
B18: [G28T] (VHH)
VHH: B1 VHH with G28T, I32M
notes: library clone tested as crude periplasmic extract; also called P01500001[G28T]
B19: [G28P] (VHH)
VHH: B1 VHH with G28P, I32M
notes: library clone tested as crude periplasmic extract; also called P01500001[G28P]
B20: [I33F] (VHH)
VHH: B1 VHH with I32M, I33F
notes: library clone tested as crude periplasmic extract; also called P01500001[I33F]
B21: [D72P] (VHH)
VHH: B1 VHH with I32M, D72P
notes: library clone tested as crude periplasmic extract; also called P01500001[D72P]
B22: [I33L] (VHH)
VHH: B1 VHH with I32M, I33L
notes: library clone tested as crude periplasmic extract; also called P01500001[I33L]

T2 sequence (P35846 25-232 limits assumed): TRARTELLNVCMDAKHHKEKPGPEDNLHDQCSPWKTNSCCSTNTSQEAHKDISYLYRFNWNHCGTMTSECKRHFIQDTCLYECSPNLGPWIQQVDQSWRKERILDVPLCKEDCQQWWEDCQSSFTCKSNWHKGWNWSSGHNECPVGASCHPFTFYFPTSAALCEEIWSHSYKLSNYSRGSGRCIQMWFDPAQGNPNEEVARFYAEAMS
T3 sequence (A0A2K5U044 entry or part of it): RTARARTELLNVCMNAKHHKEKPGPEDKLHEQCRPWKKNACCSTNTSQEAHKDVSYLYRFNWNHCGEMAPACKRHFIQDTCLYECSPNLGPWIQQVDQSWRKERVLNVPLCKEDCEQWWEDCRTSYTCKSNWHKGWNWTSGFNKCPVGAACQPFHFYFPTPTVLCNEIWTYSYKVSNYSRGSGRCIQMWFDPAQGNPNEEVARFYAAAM

The target of one experiment is T1, human folate receptor alpha (hFRα), recombinant protein (human, UniProt P15328 25-233).
T1 construct: Bought recombinant proteins (His-tagged, or biotinylated via Avi-tag, e.g. AcroBiosystems FO1-H82E2, F01-H52H1); also called hFOLR1; huFOLR1
T1 sequence (P15328 25-233 limits assumed): as the sequence (A0A2K5U044 entry or part of it) above, with T2I, R4W, K37R, P146A, Y171H counted along it
Put plainly: BLI. The method in brief: (§1)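 Biolayer interferometry was used to measure off-rates, with biotinylated human and mouse folate receptor alpha immobilised on streptavidin biosensors, and koff was calculated from the data. The fit used a 1:1 binding model. Each variant's fold change is taken against its own wild-type VHH: wild-type koff divided by variant koff when the variant's off-rate is better, and the negative of variant koff divided by wild-type koff when it is worse.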
On the technique in general: BLI is a label-free optical method that tracks binding on a fibre tip over time.
In the case of B1, the koff (in general, a measure of how fast the partners let go of each other) amounted to 0.0712 s⁻¹ and the “nm (Fold wt)” value amounted to 5.4.

With B2, the off-rate constant (koff) worked out at 0.0259 s⁻¹ and the “nm (Fold wt)” value is 2.

Regarding B3, the off-rate (koff) is 0.0747 s⁻¹ and the “nm (Fold wt)” value worked out at 5.7.

On to B4, for which the koff was 0.381 s⁻¹ and the “nm (Fold wt)” value is 29.

Turning to B5, the off-rate (koff) stood at 0.0336 s⁻¹ and the “nm (Fold wt)” value is 2.5.

Turning to B6, the koff stood at 0.0255 s⁻¹ and the “nm (Fold wt)” value stood at 2.

For B7, the koff was found to be 0.024 s⁻¹ and the “nm (Fold wt)” value is 1.8.

On to B8, for which the koff was determined as 0.0159 s⁻¹ and the “nm (Fold wt)” value was 1.2.

Turning to B9, the koff was 0.0269 s⁻¹ and the “nm (Fold wt)” value is 2.

Another experiment has as its target T2, mouse folate receptor alpha (mFRα), recombinant protein (mouse, UniProt P35846 25-232).
T2 construct: Bought recombinant proteins (e.g. biotinylated, Acro Biosystems FO1-M82E9); also called mFOLR1; Ms FOLR1
Put plainly: BLI. The method in brief:
as §1
As for B1, the koff is 0.00762 s⁻¹ and the “nm (Fold wt)” value worked out at 4.7.

For B2, the koff was 0.00346 s⁻¹ and the “nm (Fold wt)” value was 2.1.

As to B3, the koff came to 0.00614 s⁻¹ and the “nm (Fold wt)” value was determined as 3.8.

For the molecule B4, the koff is 0.0154 s⁻¹ and the “nm (Fold wt)” value is 9.4.

Take B5: the koff came out at 0.00649 s⁻¹ and the “nm (Fold wt)” value was 4.

B6: the koff is 0.00241 s⁻¹ and the “nm (Fold wt)” value was 1.5.

For B7, the koff came to 0.0035 s⁻¹ and the “nm (Fold wt)” value was found to be 2.1.

For B8, the koff stood at 0.00176 s⁻¹ and the “nm (Fold wt)” value worked out at 1.1.

Turning to B9, the koff amounted to 0.00376 s⁻¹ and the “nm (Fold wt)” value was found to be 2.3.

Another experiment has as its target T1, human folate receptor alpha (hFRα), …. The experiment in a line: BLI, purified VHH. The method in brief: (§2)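 VHH proteins carrying a flag3-His6 tag were expressed in TG-1 E. coli at 0.5 L scale. Each was purified from the periplasmic fraction on Ni Sepharose FastFlow columns, then desalted, and its purity was checked by SDS-PAGE. Biolayer interferometry was used to measure off-rates to human, mouse and cynomolgus folate receptor alpha.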
Regarding B10, the off-rate (koff) is 0.000382 s⁻¹.

B11: the koff was 0.000307 s⁻¹.

In the case of B12, the koff is 0.000265 s⁻¹.

A further experiment addresses T2, mouse folate receptor alpha (mFRα), …. Put plainly: BLI, purified VHH. The method in brief:
as §2
Take B10: the koff was 2.4e-05 s⁻¹.

With B11, the koff turned out to be 2.11e-05 s⁻¹.

Turning to B12, the koff stood at 3.38e-05 s⁻¹.

A further experiment has as its target T3, cynomolgus folate receptor alpha, recombinant (cynomolgus, UniProt A0A2K5U044 25-233).
T3 construct: also called cyFOLR1; cynomolgus FRα
The experiment in a line: BLI, purified VHH. The method in brief:
as §2
Consider B10, for which the off-rate (koff) came to 4.24e-05 s⁻¹.

On to B11, for which the off-rate constant (koff) stood at 0.000234 s⁻¹.

Consider B12, for which the koff came out at 0.00034 s⁻¹.

The next experiment deals with T1, human folate receptor alpha (hFRα), …. The experiment in a line: BLI, Avi-biotinylated FRα. On the procedure:
(§3) Purified VHHs ^{∘}100 nM) were analysed for binding to avi-tagged biotinylated FRα protein captured on streptavidin-biosensors via BLI.
(§4) Off-rates of purified variants were determined to human, mouse, and cynomolgus FRα in BLI. In addition, binding of the affinity optimised variants to cell-expressed human FRα on HeLa cells was determined by flow cytometry ^{∘}FIG. 10 B).
Take B10: the koff is 0.000382 s⁻¹.

For B11, the koff was 0.000316 s⁻¹.

B12: the koff came to 0.000295 s⁻¹.

For the next experiment, the target named is T2, mouse folate receptor alpha (mFRα), …. Put plainly: BLI, Avi-biotinylated FRα. The protocol:
as §3, §4
For B10, the off-rate constant (koff) was 2.4e-05 s⁻¹.

Take B11: the koff came out at 2.11e-05 s⁻¹.

Consider B12, for which the dissociation rate constant (koff) stood at 3.38e-05 s⁻¹.

For another experiment, the target named is T4, human folate receptor alpha expressed on cells (transfected HEK293T, HeLa, MCF7, MDA-MB-231) (human, UniProt P15328 25-234).
T4 construct: HEK293T transiently transfected with human FOLR1; also called native human FRα; cell-expressed human FOLR1
T4 sequence (P15328 25-234 limits assumed): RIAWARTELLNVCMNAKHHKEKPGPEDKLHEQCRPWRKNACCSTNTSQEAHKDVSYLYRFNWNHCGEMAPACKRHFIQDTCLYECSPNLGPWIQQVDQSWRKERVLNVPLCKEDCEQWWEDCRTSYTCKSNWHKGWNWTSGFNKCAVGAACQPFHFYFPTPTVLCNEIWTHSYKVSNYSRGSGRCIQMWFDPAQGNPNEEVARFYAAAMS
The experiment in a line: flow cytometry on HeLa cells, anti-Flag detection. The protocol: EC₅₀ values are found in Table 9. Detection of VHH cell binding was done through anti-Flag M2 mIgG1 followed by anti-mFc-PE in flow cytometry. Results are depicted as mean fluorescence intensity ^{∘}MFI).
as §4
As for B10, the EC50 (usually the concentration that produces a half-maximal response) is 3.77 nM and the MFI top was 59000 MFI.

For the molecule B11, the concentration for a half-maximal effect (EC50) is 2.56 nM and the MFI top was 53800 MFI.

B12: the response was half-maximal at 2.52 nM (EC50) and the MFI top was 55300 MFI.

The next experiment has as its target T1, human folate receptor alpha (hFRα), …. Put plainly: BLI, biotinylated FOLR1 on streptavidin biosensors. The protocol: (§5) The off-rates of the 2HFO9 ^{∘}FIG. 5A) and 2MFR67 ^{∘}FIG. 5B) mutants and the three wild-type ^{∘}WT) VHHs from family 3 were determined by biolayer interferometry ^{∘}BLI) on both mouse and human biotinylated folate receptor alpha ^{∘}FOLR1) that was immobilized on streptavidin biosensors. The off-rates were calculated using a 1:1 binding model. The fold change compared to the off-rates of the corresponding WT VHH is represented as the WT VHH off-rate divided by the off-rate of the mutant for the VHHs that show an improved off-rate compared to the WT. For the VHHs that show a worse off-rate compared to the WT, the fold change is represented as the negative value of the mutant VHH off-rate divided by the WT off-rate. The red bars represent the WT 2HFO9 and 2MFR67 in the upper and lower panel respectively.
For B13, the “Fold hu/ms (koff)” value stood at 7, the “Fold to WT (koff)” value is 2.9 and the off-rate constant (koff) was 0.0173 s⁻¹.

As to B14, the “Fold hu/ms (koff)” value came to 6, the “Fold to WT (koff)” value was 0.7 and the dissociation rate constant (koff) is 0.0145 s⁻¹.

Turning to B15, the “Fold hu/ms (koff)” value worked out at 2, the “Fold to WT (koff)” value was determined as 1 and the koff was 0.0205 s⁻¹.

As to B16, the “Fold hu/ms (koff)” value worked out at 6, the “Fold to WT (koff)” value came out at 0.6 and the koff is 0.0133 s⁻¹.

For the next experiment, the target named is T2, mouse folate receptor alpha (mFRα), …. Put plainly: BLI, biotinylated FOLR1 on streptavidin biosensors. The protocol:
as §5
Consider B13, for which the “Fold to 2HF042 (koff)” value was 0.9, the “Fold to WT (koff)” value stood at 2.6 and the koff came out at 0.00258 s⁻¹.

Regarding B14, the “Fold to 2HF042 (koff)” value is 0.9, the “Fold to WT (koff)” value was 0.3 and the koff worked out at 0.00236 s⁻¹.

Consider B15, for which the “Fold to 2HF042 (koff)” value came to 0.2, the “Fold to WT (koff)” value turned out to be 1.8 and the koff amounted to 0.012 s⁻¹.

Regarding B16, the “Fold to 2HF042 (koff)” value was 1, the “Fold to WT (koff)” value came out at 0.3 and the off-rate (koff) was determined as 0.00215 s⁻¹.

The target of another experiment is T1, human folate receptor alpha (hFRα), …. Put plainly: BLI off-rate screening, crude periplasmic extract, biotinylated human FRα on streptavidin biosensors. The protocol:
(§6) Non-redundant clones were tested as crude periplasmatic extracts for binding analysis to human FRα and mouse FRα proteins captured on streptavidin biosensors in BLI. Variants P0150001 and P0150005 grown in the same 96-well plates were included as controls.
B17: the binding result is listed as “binds”.

For B18, the binding result was “binds”.

With B19, the binding result was “binds”.

On to B20, for which the binding result is recorded as “binds”.

With B21, the binding result is “binds”.

As for B22, the binding result is “binds”.

Another experiment addresses T2, mouse folate receptor alpha (mFRα), …. Put plainly: BLI off-rate screening, crude periplasmic extract, biotinylated mouse FRα on streptavidin biosensors. The protocol: as §6
Regarding B17, the binding result is recorded as “binds”.

Take B18: the binding result was “binds”.

For the molecule B19, the binding result is given as “binds”.

As for B20, the binding result is on record as “binds”.

In the case of B21, the binding result was “binds”.

Turning to B22, the binding result is given as “binds”.
